Measured values: patent US20030096757

Molecular target: T1, 19-mer (SEQ ID NO:11) cleavage domain peptide
T1 chain: PRCGNPDVANYNFFPRKPK

B1: Proenzyme pro-MMP-9 (protein)
chain: APRQRQSTLVLFPGDLRTNLTDRQLAEEYLYRYGYTRVAEMRGESKSLGPALLLLQKQLSLPETGELDSATLKAMRTPRCGVPDLGRFQTFEGDLKWHHHNITYWIQNYSEDLPRAVIDDAFARAFALWSAVTPLTFTRVYSRDADIVIQFGVAEHGDGYPFDGKDGLLAHAFPPGPGIQGDAHFDDDELWSLGKGVVVPTRFGNADGAACHFPFIFEGRSYSACTTDGRSDGLPWCSTTANYDTDDRFGFCPSERLYTQDGNADGKPCQFPFIFQGQSYSACTTDGRSDGYRWCATTANYDRDKLFGFCPTRADSTVMGGNSAGELCVFPFTFLGKEYSTCTSEGRGDGRLWCATTSNFDSDKKWGFCPDQGYSLFLVAAHEFGHALGLDHSSVPEALMYPMYRFTEGPPLHKDDVNGIRHLYGPRPEPEPRPPTTTTPQPTAPPTVCPTGPPTVHPSERPTAGPTGPPSAGPTGPPTAGPSTATTVPLSPVDDACNVNIFDAIAEIGNQLYLFKDGKYWRFSEGRGSRPQGPFLIADKWPALPRKLDSVFEERLSKKLFFFSGRQVWVYTGASVLGPRRLDKLGLGADVAQVTGALRSGRGKMLLFSGRRLWRFDVKAQMVDPRSASEVDRMFPGVPLDTHDVFQYREKAYFCQDRFYWRVSSRSELNQVDQVGYVTYDILQCPED
anti-activation (splicing) assay: conversion of pro-MMP-9 by stromilysin, HPLC peak areas: Titrating the standard splicing reaction with the 19-mer (SEQ ID NO:11) peptide prevents the conversion of pro-MMP-9 into the prodomain and the active enzyme. Splicing can be inhibited in a dose dependent manner with micromolar 19-mer (SEQ ID NO:11) peptide.
